Data as given in patent publication US20180346523A1.

Target: NLS-PpsR2-VP16 (Rhodopseudomonas palustris; H. simplex)
Test: cell-based or functional assay

Substance: BphP1-mCherry-TetR (from UniProt P04483 1-207)
- EGFP signal, illuminated over dark-treated cells (pTRE-Tight-EGFP reporter, flow cytometry): > 27 fold
- Rluc8 activation with 740 nm light against 470 nm light in cultured HeLa cells: 18 fold
- Rluc8 light-to-dark signal ratio in mouse liver after hydrodynamic transfection (pKA-207I10), 48 h: 5.7 fold
- Rluc8 signal, 740 nm illuminated mice over mice in darkness, HeLa cells injected subcutaneously, 48 h: 32 fold
- SEAP level, 740 nm light over darkness, after 12 h: 3 fold
- SEAP level, 740 nm light over darkness, after 48 h (pTRE-Tight-SEAP reporter, HeLa): 40 fold
- SEAP reporter expression against the PhyB-PIF6 system, same reporter plasmid: 2 fold
- decrease of SEAP production by 12 h of 636 nm light after 12 h of 740 nm light, against cells kept in darkness: 2.3 fold
- half-time of SEAP accumulation under 740 nm light: 18 h
- rate of SEAP decrease in darkness after 636 nm illumination, against darkness alone: 2 fold
